Data: the supplement of paper PMC9170038

Tested on: K4 kissing-loop RNA reporter
Test: apparent KD of K4 kissing-loop reporter; higher = weaker reporter binding
Conditions: Eterna round: R107
Experimental: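 RNA-MaP round R107: designed RNA switches with theophylline, tryptophan, arginine or FMN aptamers are transcribed on-chip within common flanks. They are titrated with a labelled K4 kissing-loop RNA reporter in RNA-MaP buffer (100 mM Tris pH 7.5, 80 mM KCl, 4 mM MgCl2), without ligand or with the indicated ligand. Median apparent KD per design.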

[1] = input ligand: theophylline 20 uM
[2] = input ligand: tryptophan 2.4 mM
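Further: bound reporter read as fluorescence of individual clusters on recovered sequencing chips by microscopy, with normalized cluster intensities fitted with a binding model.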

Sequence | apparent KD of K4 kissing-loop reporter (input ligand: FMN 200 uM) [nM] | apparent KD of K4 kissing-loop reporter (input ligand: arginine 13.2 mM) [nM] | apparent KD of K4 kissing-loop reporter (input ligand: none) [nM] | apparent KD of K4 kissing-loop reporter [1] [nM] | apparent KD of K4 kissing-loop reporter [2] [nM]
GUCUCAAAAGAGGCAAGCACUCACGAGGACAAGGAUAUCAUUUCAAUGAGAAGGUGUCCUCGUCCUCAGUGAUGUUGAGGAGUGC [Omei KL FMN A SS E 1] | 423 | 159 | 259 | 299 | 233
GUGAAGGAGCUGCAGUGAUGUUGCAGAGACUAGGAUAUCAGGAAACUGAGAAGGAGUCAACUCCUUCACCUAGACUGCAACAUAA [[F]''-[K1]-[K2]-[F1]-[F2]-[F2]'-[F1]'-[K]'_Design3] | 99.6 | 69.7 | 67.7 | 75.7 | 134
GUGCAAAGCACCGGCACGAGCAGCCUAAAGGAGGAUAUGACGAAAGUCAGAAGGCCUAGUGAUGUUAGGUCUUGCUUGAGUCGAA [Omei KL FMN A Exc B v2] | 156 | 214 | 301 | 323 | 320
GUGCAGUGAUGUUGCACGAGGAAAGACGAUACCAGCCGUAAAUAAGGCCCUUGGCAGCGUAGGCCAGCAUAAAGUAUGCUAGUCU [Oresbelaen] | 120 | 107 | 111 | 89.2 | 99
GUGCGGCUAGUGAUGUUGGUUGCGUGGGAAGGAGCGCAGAAACAUGCAGGUAGGUCGCCCACAUCUCGGAUAAGAGACUAAUUCA [Letiisve] | 606 | 182 | 168 | 220 | 307
GUGCGGCUAGUGAUGUUGGUUGCGUGGGAAGGAGCGCAGAAACAUGCAGGUAGGUCGCCCACAUCUCGGAUAAGAGAUUAAUUCC [Arorso] | 291 | 153 | 252 | 262 | 244
GUGGAAAUCAGAAGGAGCGUCUACAAUAAGAAAACCAGUGAUGUUGGUUUUAUUUAAUGAAGACAGGUAGGUCGCUGAAUUUCUA [Same State Arginie B GF 20] | 138 | 106 | 118 | 105 | 118
GUGUCCUAGUCGGCCGCCACUGGUACGAAAAUAGAAGGACGUGUGCACAUGAGUGAUGUUCAUGUCAGGACCGGGACUAGGGUGU [KL-SSTryp-B6 Brourdwalk2] | 281 | 304 | 367 | 332 | 316
GUGUGUGUCGGAGGAUAUGCGAUAGAUGUAGGAGAAUUAGUGAUGUUAGUUAUGGUAGAGAUAGGAGUAGAAGGUUGGUGUGUGU [RHig 3/7 B] | 440 | 413 | 484 | 572 | 428
GUUAAGUCGCGAAGGAGCGCGAACUAACAACGCAGUGAUGUUGCGUUGUACGUAGUAUAAUCGCAGGUAGGUCGCGCGACAGGCC [Arg B SS t16] | 116 | 85.5 | 98.4 | 81 | 92.3
GUUACGCAUGGAAGGAGCGCAUGCUCAGCUAUAAGCUCAGUGAUGUUGAGCAUUUUUUUUUUGCAGGUAGGUCGCCAUGUGUAAC [Ex Arginine B K4 30] | 172 | 188 | 218 | 191 | 170
GUUACGCAUGGAAGGAGCGCGAAAAUUAAAUGUGAGUGAUGUUCACAAAUAAAUUAAAUAACGCAGGUAGGUCGCCAUGUGUAAC [Ex Arginine B K4 3] | 80.3 | 77.6 | 89 | 80.7 | 80.9
GUUAUCACGCGAAGGAGCGCGGAGCGAUAACGCAGUGAUGUUGCGUUAAACGUAAUAUAAUCGCAGGUAGGUCGCGCGUGAUACC [Arg B Ex t6] | 104 | 80.2 | 94.2 | 82.1 | 95.6
GUUAUGGACCUGGAUACCAGCUGGUACUAAGUGGGAAAAUGAAAGUGAUGUUUUCGUGCUAGCCCUUGGCAGCCAGCAACCCGCA [XTheo-B6] | 120 | 124 | 121 | 133 | 110
GUUCCCUACAAGGAUACCAGAACGUGUAGUCCGAGCGCUAGUGAUGUUGGCGUCUACCUCUUCCCUUGGCAGCCUGCAAAUCAGU [theeternabot_sameState_KL_Theo_B_48] | 269 | 155 | 236 | 217 | 200
GUUGACUACCAGAGGUGAUGUAUAGUAUCGCGAGGACCGGUACGGCCGCCACUCGUGAAGAGAAAGGAGUGAUGUUCCGUAAUGG [C9] | 222 | 254 | 322 | 340 | 122
GUUGGGUGGGUUAAAGAAUUUGUCUGACAACGAGGACCGGUACGGCCGCCACUCGAGUGAUGUUCGAGAAGAAAGAAAGAAAGAA | 66.4 | 123 | 95.4 | 146 | 126
UAAAUAAUAAAACGAGUGAUGUUCGACGAUACCAGCCUCGAUAGAGGCCCUUGGCAGCGUAAAUGAUCACAAAGCCAAGGAAUAA [#OpenEnded 1] | 158 | 174 | 158 | 192 | 134
UAAAUAAUAAAACGAGUGAUGUUCGACGAUACCAGCCUCGAUAGAGGCCCUUGGCAGCGUAUGUGAUCACUAAGCCAAGGAAUAA [#02 K4 Theophylline A Exclusion] | 164 | 175 | 167 | 196 | 132
UAAAUAAUUCAAGGAUAUGUUUUCUAUUUCGAGUGAUGUUCGGUCUUAAUAAAUUUAAUAGAUUAUACAGAAGGUGAUGGAUAGU [Astrostest] | 162 | 164 | 130 | 188 | 99.8
UAAGAACAGUCGGCCGCCACUUGAACUACAGAAGUAGGUAUAGCACCGUGAGUGAUGUUCACUGAAAGGACCGGGACUUGCUCCG [theeternabot_sameState_KL_Trp_B_30] | 476 | 310 | 399 | 430 | 574

Sequence | apparent KD of K4 kissing-loop reporter (input ligand: FMN 200 uM) [nM] | apparent KD of K4 kissing-loop reporter (input ligand: arginine 13.2 mM) [nM] | apparent KD of K4 kissing-loop reporter (input ligand: none) [nM] | apparent KD of K4 kissing-loop reporter [1] [nM] | apparent KD of K4 kissing-loop reporter [2] [nM]
UAAGAAUAAGUAGCAGUGAUGUUGCUACUACGAGGACCGGUACGGCCGCCACUCGAGCCGUACCAACUGCUACAAGGUACGAAUA [(H1)-(H2)-(Trp1)-(Trp2)-(T)'-(H)'-(T)''] | 281 | 224 | 242 | 243 | 257
UAAGAGGACCACUGCGAGAGUCCUCGAAUACGAGGACCGGUACGGCCGCCACUCGAUAACUUGCAGUGAUGUUGCAAGUAAGAAU [BrourdMod 3 - Jieux - Same State Tryptophan A] | 98.9 | 95.4 | 94.1 | 102 | 81
UAAGUAAGGGAUGAUACCAGAGAGUGAUGUUCUCAAGCGCUAUAGGAUAGCCUUAUCCACCUCCCUUGGCAGCAUACCCACUGGG [theeternabot_exclusion_KL_Theo_B_13] | 333 | 311 | 355 | 346 | 340
UAAUAGUAGACCAGGUCUACUAUUAGGGAUACCAGCCUCGGUCGAGGCCCUUGGCAGCCCAGCGGGUCCAGUGAUGUUGGAUGUC [Beoratri] | 400 | 284 | 371 | 207 | 342
UAAUCCUAGUGAUACUUAUCAAGUGGUGGGCGAGGACCGGUACGGCCGCCACUCGAAUAUGCAGUGAUGUUGUAAUCCGGAUAAU [Exclusion - Tryptophan A (Freestyle 8)] | 668 | 722 | 997 | 1500 | 397
UAAUGCAUGACGGCCGCCACUAGUACUGGAGUGAUGUUGUGGUACGGCGGCAAUAUAGGGUGGACUAGGACCGGGUCAUGCAUAU [KL-XTryp-B12 #analogue] | 403 | 336 | 346 | 380 | 432
UAAUUUAUAACUUUUAUAUAAUAAUCAGAUACCAGUGAUUAAUGUCACCCUUGGCAGCUGUAUAGAGUGAUGUUCUAAUGCUUAA [JR_SSTheophyA_Sub023] | 204 | 198 | 147 | 223 | 149
UACAUAUAAUUAUUUCUACAUUUAUUUAGUCAGGAUAUCGAUUAAACGAGAAGGGACAAUAUCAAGUGAUGUUUGAUAAUUCAAA [JR_ExcFMNA_Sub010] | 84.6 | 127 | 75.4 | 112 | 58.6
UACAUUGCAGUCUUCUUCGUCCUAGAAGACUAGGAUAUCAGGAAACUGAGAAGGAGUCUCUGCAGUGAUGUUGCAGCUAGGACGA [[K]'-[F2]'-[F1]'-[F1]-[F2]-[K1]-[K2]-[F]''_Design1] | 128 | 134 | 103 | 157 | 126
UACGUUUUAUUAACACUAAAUACAACUGAAGGAGCGACAAUAAAGUCAGGUAGGUCGCAGAAUUAAUGAGUGAUGUUCAUUUUUA [JR_ExcArginiA_Sub015] | 56.2 | 117 | 65.9 | 92 | 48.1
UACUAUAGUGAUGUUAUAGAUAAACCAGAUACCAGUGUAACAUAACACCCUUGGCAGCUGAUGAGGGAAAAUAUAAAUGUGUAUU [AstrosSSTHe-A#4newdesignED10.09] | 196 | 204 | 198 | 197 | 197
UACUAUAGUGAUGUUAUAGAUAAACCAGAUACCAGUGUAACAUAACACCCUUGGCAGCUGAUGAGGGAACAUAUGAAAACAUAUG [AstroSTH-A#6newdesignED4.78] | 254 | 209 | 256 | 215 | 222
UACUCUCCUCCUGAUACCAGAUAAAUAUUAAUACAUUAGUGAUGUUAAUGCCCAAACCCGAUCCCUUGGCAGCAGAAUAUGCAGG [theeternabot_sameState_KL_Theo_B_25] | 152 | 240 | 202 | 258 | 126
UACUUAUAGUUAUUUCUACAUUUAUUUAGUCAGGAUAUCGAUUAGUCGAGAAGGGACAAUAUCAAGUGAUGUUUGAUAAUUCAAA [JR_ExcFMNA_Sub012] | 89.9 | 161 | 119 | 158 | 84.9
UAGCGUAUUGAAGGAUAUUGCCUAGGAGUGAUGUUUGUAGAAAAUUUCCAACGGAACGAAUGUUAGCAAGAAGGUCAAUGGCCUU [theeternabot_exclusion_KL_FMN_B_40] | 230 | 239 | 404 | 456 | 281
UAGGAGUGAUGUUCCUUUAGCAGGUAGGAAGGAGCGCCCAUUUGGGCAGGUAGGUCGCCUACUGGCCCUAAGUUAAACCUUAGGC [KL-SSArg-A12] | 160 | 161 | 146 | 161 | 118
UAGGAUUUUUCGGCCGCCACUCUAGAUUCUGUGUAUUAUCUACGACUUGAAGUGAUGUUUCAGGAGAGGACCGGGAAGAUAUAAC [theeternabot_exclusion_KL_Trp_B_27] | 226 | 210 | 238 | 307 | 225
UAGGUGCCGAACCAGUGAUGUUGGAGUCAUCGAGGACCGGUACGGCCGCCACUCGGCAGCGCCGGCGCGAUUAAUUGCGGAGACA [theeternabot_sameState_KL_Trp_A_7] | 689 | 390 | 596 | 470 | 698
UAGUCCUAGUGAUCCUUAUCAAGUGGUGGGCGAGGACCGGUACGGCCGCCACUCGAAUAUGCAGUGAUGUUGUAAUCCGGACAAU [Exclusion - Tryptophan A (Freestyle 11)] | 897 | 906 | 852 | 899 | 580
UAGUCCUCUUCUUAUUUAUUCCCUAAUGCUAAGGAUAUCCGAAUUCGGAGAAGGUAGUGAUGUUACUUGAAGGGACAUAUUUAUU [AK6 Exc FMN A] | 412 | 554 | 684 | 771 | 617
UAUAGGGAUAGUGAUGUUAUCCCAUGUGAUACCAGUGCCAUCCAACACCCUUGGCAGCAUACGGGCAGUGAUGUUGUUCUUGGUA [Exclusion Theophylline A GF 14] | 102 | 88.9 | 99.1 | 89.5 | 97.2
